Measurements as given in PMC12757075 (2026).

Molecular target: actin filament barbed end (Oryctolagus cuniculus, UniProt P68135)
Assay: pyrene-actin barbed-end elongation kinetic assay

B1: vinculin V1ab4 (protein)
chain: MPVFHTRTIESILEPVAQQISHLVIMHKEGEVHGKAIPDLTAPVAAVQAAVSNLVRVGKETVQTTEDQILKRDMPPAFIKVENACTKLVQAAQMLQSDPYSVPARDYLIHGSEGILSGTSDLLLTFDEAEVRKIIRVCKGILEYLTVAEVVETMEDLVTYTKNLGPGMTKMAKMIDERQQELTHQEHRVMLVNSMNTVKELLPVLISAMKIFVTTKNSKNQGIEEALKNRNFTVEKMSAEINEIIRVLQLTSWDEDAWASKDTEAMKRALASIDSKLNQAKGWLRDPSASPGDAGEQAIRQILDEAGKVGELCAGKERREILGTCKMLGQMTDQVADLRARGQGSSPVAMQKAQQVSQGLDVLTAKVENAARKLEAMTNSKQSIAKKIDAAQNWLADPNGGPEGEEQIRGALAEARKIAELCDDPKERDDILRSLGEISALTSKLADLRRQGKGDSPEARALAKQVATALQNLQTKTNRAVANSRPAKAAVHLEGKIEQAQRWIDNPTVDDRGVGQAAIRGLVAEGHRLANVMMGPYRQDLLAKCDRVDQLTAQLADLAARGEGESPQARALASQLQDSLKDLKARMQEAMTQEVSDVFSDTTTPIKLLAVAATAPPDAPNREEVFDERAANFENHSGKLGATAEKAAAVGTANKSTVEGIQASVKTARELTPQVVSAARILLRNPGNQAAYEHFETMKNQWIDNVEKMTGLVDEAIDTKSLLDASEEAIKKDLDKCKVAMANIQPQMLVAGATSIARRANRILLVAKREVEISKDPKFREAVKAASDELSKTISPMVMDAKAVAGNISDPGLQKSFLDSGYRILGAVAKVREAFQPQEPDFPPPPPDLEQLRLTDELAPPKPPLPEGEVPPPRPPPPEEKDEEFPEQKAGEVINQPMMMAARQLHDEARKWSSKPGIPAAEVGIGVVAEADAADAAGFPVPPDMEDDYEPELLLMPSNQPVNQPILAAAQSLHREATKWSSKGNDIIAAAKRMALLMAEMSRLVRGGSGTKRALIQCAKDIAKASDEVTRLAKEVAKQCTDKRIRTNLLQVCERIPTISTQLKILSTVKATMLGRTNISDEESEQATEMLVHNAQNLMQSVKETVREAEAASIKIRTDAGFTLRWVRKTPWYQ
- Kd: ~1260 nM
